What all share (assay): purified protein
The subject of one data set is c1ccc(OCC2CO2)cc1. The settings on record: 50 mM Tris pH 8.0, 30 °C, 30 min, 2 μg protein.
The next data set has as its system c1ccc(OC[C@H]2CO2)cc1. The settings on record: 50 mM Tris pH 8.0, 30 °C, 30 min, 2 μg protein.
The next data set concerns c1ccc(OC[C@@H]2CO2)cc1. Particulars: 50 mM Tris pH 8.0, 30 °C, 30 min, 2 μg protein.
The subject of a further data set is c1ccc(COC[C@H]2CO2)cc1. Format: biochemical, Yarrowia lipolytica. Particulars: 50 mM Tris pH 8.0, 30 °C, 30 min, 10 μg protein.
The next data set has as its system c1ccc(COC[C@@H]2CO2)cc1. It is filed as biochemical, Yarrowia lipolytica. Particulars: 50 mM Tris pH 8.0, 30 °C, 30 min, 2 μg protein.
Another data set has as its system c1ccc(COCC2CO2)cc1. Format: biochemical, Yarrowia lipolytica. Particulars: 50 mM Tris pH 8.0, 30 °C, 30 min, 2 μg protein.

For the substance Ylehd (Yarrowia lipolytica), the Km stood at 600 ± 9 µM in the data set on c1ccc(OCC2CO2)cc1; 1320 ± 45 µM in the data set on c1ccc(OC[C@H]2CO2)cc1; 930 ± 71 µM in the data set with c1ccc(OC[C@@H]2CO2)cc1; 800 ± 10 µM in the data set on c1ccc(COC[C@H]2CO2)cc1; 270 ± 24 µM with c1ccc(COC[C@@H]2CO2)cc1; 150 ± 2 µM in the data set with c1ccc(COCC2CO2)cc1. In addition, the kcat amounted to 7.34 s⁻¹ in the data set on c1ccc(OCC2CO2)cc1; 33.8 s⁻¹ with c1ccc(OC[C@H]2CO2)cc1; 15.7 s⁻¹ in the data set with c1ccc(OC[C@@H]2CO2)cc1; 3.45 ± 0.089 s⁻¹ in the data set with c1ccc(COC[C@H]2CO2)cc1; 12 ± 0.97 s⁻¹ with c1ccc(COC[C@@H]2CO2)cc1; 5.73 ± 0.54 s⁻¹ in the data set on c1ccc(COCC2CO2)cc1. The kcat/Km in the data set with c1ccc(OCC2CO2)cc1 came to 12200 M⁻¹ s⁻¹; in the data set with c1ccc(OC[C@H]2CO2)cc1 it was 25500 M⁻¹ s⁻¹; with c1ccc(OC[C@@H]2CO2)cc1, 16600 M⁻¹ s⁻¹; in the data set on c1ccc(COC[C@H]2CO2)cc1, 4310 ± 70 M⁻¹ s⁻¹; with c1ccc(COC[C@@H]2CO2)cc1 it was 44700 ± 870 M⁻¹ s⁻¹; in the data set with c1ccc(COCC2CO2)cc1, 38200 ± 1080 M⁻¹ s⁻¹.

The values are drawn from publication PMC9079618, “Evaluating Ylehd, a recombinant epoxide hydrolase from Yarrowia lipolytica as a potential biocatalyst for the resolution of benzyl glycidyl ether” (RSC Advances, 2018).
